{
  "source": "patent JP2017222678A",
  "about": "(dated 2017)",
  "binders": {"B1": {"name": "TP-2G6 (Fab, V domains shown)", "VH": "QVQLQQSGPGLVKPSQTLSLTCAISGDSVSSSSAAWSWIRQSPGRGLEWLGIIYYRSKWYNDYAVSVKSRITINPDTSKNQFSLQLNSVTPEDTAVYYCARHSMVGFDVWGQGTLVTVSS", "VL": "DIVLTQSPATLSLSPGERATLSCRASQYVTSSYLAWYQQKPGQAPRLLIYGSSRATGVPARFSGSGSGTDFTLTISSLEPEDFATYYCQQYSSSPITFGQGTKVEIKR", "notes": "HuCAL Gold human Fab from E. coli TG1; also called 2G6-Fab"}, "B2": {"name": "2G6-IgG (antibody, V domains shown)", "VH": "QVQLQQSGPGLVKPSQTLSLTCAISGDSVSSSSAAWSWIRQSPGRGLEWLGIIYYRSKWYNDYAVSVKSRITINPDTSKNQFSLQLNSVTPEDTAVYYCARHSMVGFDVWGQGTLVTVSS", "VL": "DIVLTQSPATLSLSPGERATLSCRASQYVTSSYLAWYQQKPGQAPRLLIYGSSRATGVPARFSGSGSGTDFTLTISSLEPEDFATYYCQQYSSSPITFGQGTKVEIKR", "notes": "also called IgG-2G6; TP-2G6 after conversion to IgG"}, "B3": {"name": "TP-2B4 (Fab, V domains shown)", "VH": "QVQLVESGGGLVQPGGSLRLSCAASGFTFSNYSMTWVRQAPGKGLEWVSGISYNGSNTYYADSVKGRFTISRDNSKNTLYLQMNSLRAEDTAVYYCARIYYMNLLAGWGQGTLVTVSS", "VL": "DIELTQPPSVSVAPGQTARISCSGDALGTYYAYWYQQKPGQAPVLVIYGDMNRPSGIPERFSGSNSGNTATLTISGTQAEDEADYYCQSYDAGVKPAVFGGGTKLTVLG", "notes": "HuCAL Gold human Fab from E. coli TG1"}, "B4": {"name": "TP-3H2 (Fab, V domains shown)", "VH": "QVQLVESGGGLVQPGGSLRLSCAASGFTFNSYYMSWVRQAPGKGLEWVSNISSSGSNTNYADSVKGRFTISRDNSKNTLYLQMNSLRAEDTAVYYCARVHYGFDFWGQGTLVTVSS", "VL": "DIELTQPPSVSVAPGQTARISCSGDKLGKYYAYWYQQKPGQAPVLVIYGDSKRPSGIPERFSGSNSGNTATLTISGTQAEDEADYYCSSAAFGSTVFGGGTKLTVLG", "notes": "as for B3"}, "B5": {"name": "TP-2A8 (Fab, V domains shown)", "VH": "QVQLVESGGGLVQPGGSLRLSCAASGFTFRSYGMSWVRQAPGKGLEWVSSIRGSSSSTYYADSVKGRFTISRDNSKNTLYLQMNSLRAEDTAVYYCARKYRYWFDYWGQGTLVTVSS", "VL": "DIELTQPPSVSVAPGQTARISCSGDNLRNYYAHWYQQKPGQAPVVVIYYDNNRPSGIPERFSGSNSGNTATLTISGTQAEDEADYYCQSWDDGVPVFGGGTKLTVLG", "notes": "HuCAL Gold human Fab from E. coli TG1; also called Fab-2A8; TP-2A8-Fab"}, "B6": {"name": "TP-2A10 (Fab, V domains shown)", "VH": "QVQLVESGGGLVQPGGSLRLSCAASGFTFTSYSMNWVRQAPGKGLEWVSAISYTGSNTHYADSVKGRFTISRDNSKNTLYLQMNSLRAEDTAVYYCARAFLGYKESYFDIWGQGTLVTVSS", "VL": "DIELTQPPSVSVAPGQTARISCSGDKLGKKYVHWYQQKPGQAPVLVIYGDDKRPSGIPERFSGSNSGNTATLTISGTQAEDEADYYCQAWGSISRFVFGGGTKLTVLG", "notes": "as for B3"}, "B7": {"name": "TP-4A7 (Fab, V domains shown)", "VH": "QVQLVESGGGLVQPGGSLRLSCAASGFTFRNYAMNWVRQAPGKGLEWVSVISGSSSYTYYADSVKGRFTISRDNSKNTLYLQMNSLRAEDTAVYYCARADLPYMVFDYWGQGTLVTVSS", "VL": "DIELTQPPSVSVAPGQTARISCSGDALGSKFAHWYQQKPGQAPVLVIYDDSERPSGIPERFSGSNSGNTATLTISGTQAEDEADYYCQAYDSGLLYVFGGGTKLTVLG", "notes": "as for B3"}, "B8": {"name": "TP-2B8 (Fab, V domains shown)", "VH": "QVQLVQSGAEVKKPGASVKVSCKASGYTFTGNSMHWVRQAPGQGLEWMGTIFPYDGTTKYAQKFQGRVTMTRDTSISTAYMELSSLRSEDTAVYYCARGVHSYFDYWGQGTLVTVSS", "VL": "DIELTQPPSVSVAPGQTARISCSGDNLRGYYASWYQQKPGQAPVLVIYEDNNRPSGIPERFSGSNSGNTATLTISGTQAEDEADYYCQSWDSPYVHVFGGGTKLTVLG", "notes": "as for B3"}, "B9": {"name": "TP-3G3 (Fab, V domains shown)", "VH": "QVQLVESGGGLVQPGGSLRLSCAASGFTFSSYSMSWVRQAPGKGLEWVSSISSSSSNTYYGDSVKGRFTISRDNSKNTLYLQMNSLRAEDTAVYYCARMHYKGMDIWGQGTLVTVSS", "VL": "DIQMTQSPSSLSASVGDRVTITCRASQNIHSHLNWYQQKPGKAPKLLIYDASSLQSGVPSRFSGSGSGTDFTLTISSLQPEDFAVYYCQQYYDYPLTFGQGTKVEIKR", "notes": "as for B3"}, "B10": {"name": "TP-2B1 (Fab, V domains shown)", "VH": "QVQLVESGGGLVQPGGSLRLSCAASGFTFSSYSMSWVRQASGKGLEWVSSIKGSGSNTYYADSVKGRFTISRDNSKNTLYLQMNSLRAEDTAVYYCARNGGLIDVWGQGTLVTVSS", "VL": "DIELTQPPSVSVAPGQTARISCSGDNLGNKYAHWYQQKPGQAPVLVIYYDNKRPSGIPERFSGSNSGNTATLTISGTQAEDEADYYCQSWTPGSNTMVFGGGTRLTVLG", "notes": "as for B3"}, "B11": {"name": "TP-2B3 (Fab, V domains shown)", "VH": "QVQLQQSGPGLVKPSQTLSLTCAISGDSVSSNSAAWGWIRQSPGRGLEWLGMIYYRSKWYNSYAVSVKSRITINPDTSKNQFSLQLNSVTPEDTAVYYCARTMSKYGGPGMDVWGQGTLVTVSS", "VL": "DIVLTQSPATLSLSPGERATLSCRASQNIGSNYLAWYQQKPGQAPRLLIYGASTRATGVPARFNGSGSGTDFTLTISSLEPEDFAVYYCQQLNSIPVTFGQGTKVEIKR", "notes": "as for B3"}, "B12": {"name": "TP-3G1 (Fab, V domains shown)", "VH": "QVQLQQSGPGLVKPSQTLSLTCAISGDSVSSNSGGWGWIRQSPGRGLEWLGLIYYRSKWYNAYAVSVKSRITINPDTSKNQFSLQLNSVTPEDTAVYYCARYLGSNFYVYSDVWGQGTLVTVSS", "VL": "DIQMTQSPSSLSASVGDRVTITCRASQGISSYLHWYQQKPGKAPKLLIYGASTLQSGVPSRFSGSGSGTDFTLTISSLQPEDFATYYCQQQNGYPFTFGQGTKVEIKR", "notes": "as for B3"}, "B13": {"name": "TP-4B7 (Fab, V domains shown)", "VH": "QVQLQQSGPGLVKPSQTLSLTCAISGDSVSSNSAAWSWIRQSPGRGLEWLGIIYKRSKWYNDYAVSVKSRITINPDTSKNQFSLQLNSVTPEDTAVYYCARWHSDKHWGFDYWGQGTLVTVSS", "VL": "DIVMTQSPLSLPVTPGEPASISCRSSQSLVFSDGNTYLNWYLQKPGQSPQLLIYKGSNRASGVPDRFSGSGSGTDFTLKISRVEAEDVGVYYCQQYDSYPLTFGQGTKVEIKR", "notes": "as for B3"}},
  "data": [
    {"target": "T1, マウスTFPI (mouse TFPI; R&D System) (mouse, UniProt O54819 29-289, limits assumed)", "T1 construct": "also called m-TFPI; mTFPI", "T1 sequence (looked up)": "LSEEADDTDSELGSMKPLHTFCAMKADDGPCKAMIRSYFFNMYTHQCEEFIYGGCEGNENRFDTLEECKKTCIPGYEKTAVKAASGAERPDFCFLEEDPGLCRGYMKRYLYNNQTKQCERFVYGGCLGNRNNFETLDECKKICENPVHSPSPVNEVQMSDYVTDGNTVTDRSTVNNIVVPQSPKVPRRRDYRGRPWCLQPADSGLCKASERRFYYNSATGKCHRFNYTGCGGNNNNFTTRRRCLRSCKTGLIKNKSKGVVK", "experiment": "ELISA on coated mouse TFPI", "units": {"EC50": "pM", "fold improvement of EC50 against 2G6-Fab": "fold"}, "values": [
      {"binder": "B1", "EC50": 5180},
      {"binder": "B2", "EC50": 510, "fold improvement of EC50 against 2G6-Fab": 10}
    ]},
    {"target": "T2, ヒトTFPI (human tissue factor pathway inhibitor; American Diagnostica) (human, UniProt P10646 29-304, limits assumed)", "T2 construct": "Coated on plates (ELISA) or amine-coupled to a CM5 chip (Biacore); also called h-TFPI; hTFPI", "T2 sequence (looked up)": "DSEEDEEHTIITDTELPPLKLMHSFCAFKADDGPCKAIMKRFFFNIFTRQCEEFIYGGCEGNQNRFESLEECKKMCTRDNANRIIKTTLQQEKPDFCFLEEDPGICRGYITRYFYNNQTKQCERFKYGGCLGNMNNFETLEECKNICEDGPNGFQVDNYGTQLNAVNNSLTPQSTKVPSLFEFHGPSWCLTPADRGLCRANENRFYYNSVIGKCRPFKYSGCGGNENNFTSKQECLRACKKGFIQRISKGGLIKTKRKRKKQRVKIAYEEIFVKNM", "experiment": "ELISA, Fab in bacterial lysate on coated human TFPI", "values": [
      {"binder": "B3", "binding result": "binds"},
      {"binder": "B4", "binding result": "binds"},
      {"binder": "B5", "binding result": "binds"},
      {"binder": "B6", "binding result": "binds"},
      {"binder": "B7", "binding result": "binds"},
      {"binder": "B8", "binding result": "binds"},
      {"binder": "B9", "binding result": "binds"},
      {"binder": "B10", "binding result": "binds"},
      {"binder": "B11", "binding result": "binds"},
      {"binder": "B12", "binding result": "binds"},
      {"binder": "B13", "binding result": "binds"}
    ]},
    {"target": "T2, ヒトTFPI (human tissue factor pathway …)", "experiment": "ELISA on coated human TFPI", "units": {"EC50": "pM", "fold improvement of EC50 against 2G6-Fab": "fold"}, "values": [
      {"binder": "B1", "EC50": 480},
      {"binder": "B2", "EC50": 220, "fold improvement of EC50 against 2G6-Fab": 2}
    ]}
  ]
}
